# From patent US20220251152A1, “COMPOSITIONS AND METHODS FOR SELECTIVE PROTEIN DEGRADATION” (Novartis AG, priority 2019, published 2022)
# Test system: CAR19 fused to HilD tag and/or FurON
# Assay: Flow cytometry of surface CAR expression on JNL cells, 10 μM lenalidomide and/or bazedoxifene 24 hours
# Type: cell-based, human
# Conditions: for effect of lenalidomide on surface CAR expression of the construct: 10 μM lenalidomide for 24 hours; for % reduction in CAR expression / Effect of lenalidomide / CAR Expression: surface CAR on transduced JNL cells; for % reduction in CAR expression / Effect of lenalidomide: 10 μM lenalidomide, 24 hours; for CAR Expression: flow cytometry, FurON constructs only in presence of bazedoxifene
# Text: Next, the surface expression of CAR19 on stably transduced JNL cells was examined by flow cytometry. […] On Day 2, cells were harvested, stained using biotinylated-protein L (Genscript, M00097) followed by PE conjugated streptavidin (Jackson Lab, 016-110-084), and subjected to flow cytometry analysis using Fortessa instrument.
Molecule,effect of lenalidomide on surface CAR expression of the construct,% reduction in CAR expression [%],Effect of lenalidomide,CAR Expression
"construct 774: signal peptide, the HilD tag, a furin cleavage site, and CAR19 (protein) MALPVTALLLPLALLLHAARPHKRSHTGERPFQCNQCGASFTQKGNLLRHIKLHTGEKPFKCHLCNTASAEARHIKAEMGGTGAEDPRPSRKRRSLGDVGEIVMTQSPATLSLSPGERATLSCRASQDISKYLNWYQQKPGQAPRLLIYHTSRLHSGIPARFSGSGSGTDYTLTISSLQPEDFAVYFCQQGNTLPYTFGQGTKLEIKGGGGSGGGGSGGGGSQVQLQESGPGLVKPSETLSLTCTVSGVSLPDYGVSWIRQPPGKGLEWIGVIWGSETTYYQSSLKSRVTISKDNSKNQVSLKLSSVTAADTAVYYCAKHYYYGGSYAMDYWGQGTLVTVSSTTTPAPRPPTPAPTIASQPLSLRPEACRPAAGGAVHTRGLDFACDIYIWAPLAGTCGVLLLSLVITLYCKRGRKKLLYIFKQPFMRPVQTTQEEDGCSCRFPEEEEGGCELRVKFSRSADAPAYQQGQNQLYNELNLGRREEYDVLDKRRGRDPEMGGKPRRKNPQEGLYNELQKDKMAEAYSEIGMKGERRRGKGHDGLYQGLSTATKDTYDALHMQALPPR",did not impact surface CAR expression,,,
774 (protein) MALPVTALLLPLALLLHAARPHKRSHTGERPFQCNQCGASFTQKGNLLRHIKLHTGEKPFKCHLCNTASAEARHIKAEMGGTGAEDPRPSRKRRSLGDVGEIVMTQSPATLSLSPGERATLSCRASQDISKYLNWYQQKPGQAPRLLIYHTSRLHSGIPARFSGSGSGTDYTLTISSLQPEDFAVYFCQQGNTLPYTFGQGTKLEIKGGGGSGGGGSGGGGSQVQLQESGPGLVKPSETLSLTCTVSGVSLPDYGVSWIRQPPGKGLEWIGVIWGSETTYYQSSLKSRVTISKDNSKNQVSLKLSSVTAADTAVYYCAKHYYYGGSYAMDYWGQGTLVTVSSTTTPAPRPPTPAPTIASQPLSLRPEACRPAAGGAVHTRGLDFACDIYIWAPLAGTCGVLLLSLVITLYCKRGRKKLLYIFKQPFMRPVQTTQEEDGCSCRFPEEEEGGCELRVKFSRSADAPAYQQGQNQLYNELNLGRREEYDVLDKRRGRDPEMGGKPRRKNPQEGLYNELQKDKMAEAYSEIGMKGERRRGKGHDGLYQGLSTATKDTYDALHMQALPPR,,5,No,Yes
"construct 769: signal peptide, CAR19, a 16GS linker, and the HilD tag (protein) EIVMTQSPATLSLSPGERATLSCRASQDISKYLNWYQQKPGQAPRLLIYHTSRLHSGIPARFSGSGSGTDYTLTISSLQPEDFAVYFCQQGNTLPYTFGQGTKLEIKGGGGSGGGGSGGGGSQVQLQESGPGLVKPSETLSLTCTVSGVSLPDYGVSWIRQPPGKGLEWIGVIWGSETTYYQSSLKSRVTISKDNSKNQVSLKLSSVTAADTAVYYCAKHYYYGGSYAMDYWGQGTLVTVSSTTTPAPRPPTPAPTIASQPLSLRPEACRPAAGGAVHTRGLDFACDIYIWAPLAGTCGVLLLSLVITLYCKRGRKKLLYIFKQPFMRPVQTTQEEDGCSCRFPEEEEGGCELRVKFSRSADAPAYQQGQNQLYNELNLGRREEYDVLDKRRGRDPEMGGKPRRKNPQEGLYNELQKDKMAEAYSEIGMKGERRRGKGHDGLYQGLSTATKDTYDALHMQALPPRGGGGSGGGGTGGGGSGMHKRSHTGERPFQCNQCGASFTQKGNLLRHIKLHTGEKPFKCHLCNTASAEARHIKAEMG",significantly reduced surface CAR expression,,,
"construct 6761: signal peptide, CAR19, a 16KGS linker, the HilD tag, and a V5 (protein) MALPVTALLLPLALLLHAARPEIVMTQSPATLSLSPGERATLSCRASQDISKYLNWYQQKPGQAPRLLIYHTSRLHSGIPARFSGSGSGTDYTLTISSLQPEDFAVYFCQQGNTLPYTFGQGTKLEIKGGGGSGGGGSGGGGSQVQLQESGPGLVKPSETLSLTCTVSGVSLPDYGVSWIRQPPGKGLEWIGVIWGSETTYYQSSLKSRVTISKDNSKNQVSLKLSSVTAADTAVYYCAKHYYYGGSYAMDYWGQGTLVTVSSTTTPAPRPPTPAPTIASQPLSLRPEACRPAAGGAVHTRGLDFACDIYIWAPLAGTCGVLLLSLVITLYCKRGRKKLLYIFKQPFMRPVQTTQEEDGCSCRFPEEEEGGCELRVKFSRSADAPAYQQGQNQLYNELNLGRREEYDVLDKRRGRDPEMGGKPRRKNPQEGLYNELQKDKMAEAYSEIGMKGERRRGKGHDGLYQGLSTATKDTYDALHMQALPPRKGGGSKGGGTKGGGSKMHKRSHTGERPFQCNQCGASFTQKGNLLRHIKLHTGEKPFKCHLCNTASAEARHIKAEMGGKPIPNPLLGLDST",significantly reduced surface CAR expression,,,
"construct 768: signal peptide, CAR19, a 16GS linker, the HilD tag, and a V5 (protein) MALPVTALLLPLALLLHAARPEIVMTQSPATLSLSPGERATLSCRASQDISKYLNWYQQKPGQAPRLLIYHTSRLHSGIPARFSGSGSGTDYTLTISSLQPEDFAVYFCQQGNTLPYTFGQGTKLEIKGGGGSGGGGSGGGGSQVQLQESGPGLVKPSETLSLTCTVSGVSLPDYGVSWIRQPPGKGLEWIGVIWGSETTYYQSSLKSRVTISKDNSKNQVSLKLSSVTAADTAVYYCAKHYYYGGSYAMDYWGQGTLVTVSSTTTPAPRPPTPAPTIASQPLSLRPEACRPAAGGAVHTRGLDFACDIYIWAPLAGTCGVLLLSLVITLYCKRGRKKLLYIFKQPFMRPVQTTQEEDGCSCRFPEEEEGGCELRVKFSRSADAPAYQQGQNQLYNELNLGRREEYDVLDKRRGRDPEMGGKPRRKNPQEGLYNELQKDKMAEAYSEIGMKGERRRGKGHDGLYQGLSTATKDTYDALHMQALPPRGGGGSGGGGTGGGGSGMHKRSHTGERPFQCNQCGASFTQKGNLLRHIKLHTGEKPFKCHLCNTASAEARHIKAEMGGKPIPNPLLGLDST",significantly reduced surface CAR expression,,,
"construct 773: modified signal peptide, the HilD tag, a furin cleavage site, and CAR19 (protein) MALPVTALLLPLALLLHAARPRSSLAHKRSHTGERPFQCNQCGASFTQKGNLLRHIKLHTGEKPFKCHLCNTASAEARHIKAEMGGTGAEDPRPSRKRRSLGDVGEIVMTQSPATLSLSPGERATLSCRASQDISKYLNWYQQKPGQAPRLLIYHTSRLHSGIPARFSGSGSGTDYTLTISSLQPEDFAVYFCQQGNTLPYTFGQGTKLEIKGGGGSGGGGSGGGGSQVQLQESGPGLVKPSETLSLTCTVSGVSLPDYGVSWIRQPPGKGLEWIGVIWGSETTYYQSSLKSRVTISKDNSKNQVSLKLSSVTAADTAVYYCAKHYYYGGSYAMDYWGQGTLVTVSSTTTPAPRPPTPAPTIASQPLSLRPEACRPAAGGAVHTRGLDFACDIYIWAPLAGTCGVLLLSLVITLYCKRGRKKLLYIFKQPFMRPVQTTQEEDGCSCRFPEEEEGGCELRVKFSRSADAPAYQQGQNQLYNELNLGRREEYDVLDKRRGRDPEMGGKPRRKNPQEGLYNELQKDKMAEAYSEIGMKGERRRGKGHDGLYQGLSTATKDTYDALHMQALPPR",did not impact surface CAR expression,,,
773 (protein) MALPVTALLLPLALLLHAARPRSSLAHKRSHTGERPFQCNQCGASFTQKGNLLRHIKLHTGEKPFKCHLCNTASAEARHIKAEMGGTGAEDPRPSRKRRSLGDVGEIVMTQSPATLSLSPGERATLSCRASQDISKYLNWYQQKPGQAPRLLIYHTSRLHSGIPARFSGSGSGTDYTLTISSLQPEDFAVYFCQQGNTLPYTFGQGTKLEIKGGGGSGGGGSGGGGSQVQLQESGPGLVKPSETLSLTCTVSGVSLPDYGVSWIRQPPGKGLEWIGVIWGSETTYYQSSLKSRVTISKDNSKNQVSLKLSSVTAADTAVYYCAKHYYYGGSYAMDYWGQGTLVTVSSTTTPAPRPPTPAPTIASQPLSLRPEACRPAAGGAVHTRGLDFACDIYIWAPLAGTCGVLLLSLVITLYCKRGRKKLLYIFKQPFMRPVQTTQEEDGCSCRFPEEEEGGCELRVKFSRSADAPAYQQGQNQLYNELNLGRREEYDVLDKRRGRDPEMGGKPRRKNPQEGLYNELQKDKMAEAYSEIGMKGERRRGKGHDGLYQGLSTATKDTYDALHMQALPPR,,4,No,Yes
"construct 771: signal peptide, CAR19, the HilD tag, and a V5 (protein) MALPVTALLLPLALLLHAARPEIVMTQSPATLSLSPGERATLSCRASQDISKYLNWYQQKPGQAPRLLIYHTSRLHSGIPARFSGSGSGTDYTLTISSLQPEDFAVYFCQQGNTLPYTFGQGTKLEIKGGGGSGGGGSGGGGSQVQLQESGPGLVKPSETLSLTCTVSGVSLPDYGVSWIRQPPGKGLEWIGVIWGSETTYYQSSLKSRVTISKDNSKNQVSLKLSSVTAADTAVYYCAKHYYYGGSYAMDYWGQGTLVTVSSTTTPAPRPPTPAPTIASQPLSLRPEACRPAAGGAVHTRGLDFACDIYIWAPLAGTCGVLLLSLVITLYCKRGRKKLLYIFKQPFMRPVQTTQEEDGCSCRFPEEEEGGCELRVKFSRSADAPAYQQGQNQLYNELNLGRREEYDVLDKRRGRDPEMGGKPRRKNPQEGLYNELQKDKMAEAYSEIGMKGERRRGKGHDGLYQGLSTATKDTYDALHMQALPPRMHKRSHTGERPFQCNQCGASFTQKGNLLRHIKLHTGEKPFKCHLCNTASAEARHIKAEMGGKPIPNPLLGLDST",significantly reduced surface CAR expression,,,
771 (protein) MALPVTALLLPLALLLHAARPEIVMTQSPATLSLSPGERATLSCRASQDISKYLNWYQQKPGQAPRLLIYHTSRLHSGIPARFSGSGSGTDYTLTISSLQPEDFAVYFCQQGNTLPYTFGQGTKLEIKGGGGSGGGGSGGGGSQVQLQESGPGLVKPSETLSLTCTVSGVSLPDYGVSWIRQPPGKGLEWIGVIWGSETTYYQSSLKSRVTISKDNSKNQVSLKLSSVTAADTAVYYCAKHYYYGGSYAMDYWGQGTLVTVSSTTTPAPRPPTPAPTIASQPLSLRPEACRPAAGGAVHTRGLDFACDIYIWAPLAGTCGVLLLSLVITLYCKRGRKKLLYIFKQPFMRPVQTTQEEDGCSCRFPEEEEGGCELRVKFSRSADAPAYQQGQNQLYNELNLGRREEYDVLDKRRGRDPEMGGKPRRKNPQEGLYNELQKDKMAEAYSEIGMKGERRRGKGHDGLYQGLSTATKDTYDALHMQALPPRMHKRSHTGERPFQCNQCGASFTQKGNLLRHIKLHTGEKPFKCHLCNTASAEARHIKAEMGGKPIPNPLLGLDST,,87,Yes,Yes
